Assays:
[1] = target: rodent (mouse) Aβ1-42 (mouse (rodent)) (UniProt P12023); test: microplate assay on coated human and rodent Aβ1-40 and 1-42
[2] = target: rodent (mouse) Aβ1-40 (mouse (rodent)) (UniProt P12023); test: as above
human Aβ1-40 (human) = human Aβ1-40 (human) (UniProt P05067); test: sandwich ELISA, IAlO capture, HRP-14Fl detection, human and mouse Abeta 1-40
amyloid β (2-40) (human) = amyloid β (2-40) (human) (UniProt P05067); test: sandwich ELISA, IAlO capture, HRP-14Fl detection, Abeta fragment 2-40
amyloid β (3-40) (human) = amyloid β (3-40) (human) (UniProt P05067); test: sandwich ELISA, IAlO capture, HRP-14Fl detection, Abeta fragment 3-40

“Aβ N-terminal-end specific monoclonal antibody 82E1 (printed 82El)” was tested. Which cross-reactivity (against human Aβ) [1] did it give?
Its cross-reactivity (against human Aβ) is 10%.

And the cross-reactivity (against human Aβ) [2]?
Its cross-reactivity (against human Aβ) is 10%.

B1: 14F1, mouse/human cross-reactive N terminus end-specific anti-Abeta antibody (antibody, V domains shown)
VH: DVHLQASGPDLVRPSQSLSLTCTVTDYSITSDYSWHWIRQFPGNKLEWMGYILFSGSSNFNPSLKSRISITRDTSKNQFFLHLNSVTTEDTATYYCARRAYDGNFSWFAYWGQGTLVTVSA
VL: QAVVTQESALTTSPGETVTLTCRSSAGAVTISNYANWVQEKPDHLFTGLIGGTNNRAPGVPARFSGSLIGDKAALTITGAQTEDEAIYFCALWYGNYWVFGGGTKLTVLG
B1 was tested. Which cross reactivity (against mouse Abeta 1-40) (human Aβ1-40 (human)) did it give?
The cross reactivity (against mouse Abeta 1-40) was 50%.

What about the cross reactivity (against full-length Abeta 1-40) (amyloid β (2-40) (human)) of the same molecule?
Its cross reactivity (against full-length Abeta 1-40) is 0.78%.

And the cross reactivity (against full-length Abeta 1-40) (amyloid β (3-40) (human))?
The cross reactivity (against full-length Abeta 1-40) was 0.08%.
